This assay has as its target CglEndoMS-ΔCter, His-tagged (lacks the five carboxy-terminal residues of CglEndoMS) (Corynebacterium glutamicum ATCC 13032). Briefly: SEC. For orientation: SEC sorts molecules by how far they enter the pores of the column.

By stoichiometry N is commonly meant the number of molecules, sites or subunits per partner or assembly.

Substance “CglEndoMS-ΔCter, His-tagged (lacks the five carboxy-terminal residues of CglEndoMS) (domain or fragment)” came in with a stoichiometry N of 2.

For the origin of these results see publication PMC6159515.
